The test system of data set [1] is Saccharomyces cerevisiae. As to the kind of experiment: protein stability index of tFT-peptide fusion (C-terminal peptide) (PSI (0-1 scale)); higher = more stable (slower turnover). The settings on record: genetic background: wild type; temperature: 30 C.
Data set [2] deals with Saccharomyces cerevisiae. The description is as above. As to the method:
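MPS profiling in S. cerevisiae of the tFT-X12 degron library: putative degron peptides plus stable controls, 12 aa, fused to the C-terminus of a sfGFP-mCherry timer. Cells are FACS-sorted into 8 mCherry/sfGFP bins and deep-sequenced. PSI runs from 0 (unstable) to 1 (stable). Backgrounds are wild type, das1Δ and doa10Δ at 30 °C, and wild type, das1Δ, cdc34-1 and cdc53-1 at 37 °C; 2-3 technical replicates each.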

The mark [3] stands for this setting: genetic background: cdc34-1, temperature: 37 C.
[4] abbreviates: genetic background: cdc53-1, temperature: 37 C.
[5] abbreviates: genetic background: das1 deletion, temperature: 30 C.
Setting [6] is: genetic background: das1 deletion, temperature: 37 C.
Setting [7] is: genetic background: doa10 deletion, temperature: 30 C.
Setting [8] is: genetic background: wild type, temperature: 30 C.
The mark [9] stands for this setting: genetic background: wild type, temperature: 37 C.

± gives the standard deviation of the averaged measurements.
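Further: PSI is a weighted mean of sequencing reads over stability bins, variants kept only with over 10 reads, mCherry proximal and sfGFP distal, peptide attached via GGGS linker.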

On to ACGGGSNVHRAG, for which the protein stability index in the data set on Saccharomyces cerevisiae [1] is 0.747 ± 0.012; in the data set with Saccharomyces cerevisiae [2] (setting [3]) it was 0.665 ± 0.028; in the data set with Saccharomyces cerevisiae [2] (setting [4]), 0.7248 ± 0.0067; in the data set on Saccharomyces cerevisiae [2] (setting [5]), 0.657 ± 0.019; in the data set on Saccharomyces cerevisiae [2] (setting [6]) it was 0.767 ± 0.021; in the data set on Saccharomyces cerevisiae [2] (setting [7]) it was 0.662 ± 0.045. In addition, the protein stability index with Saccharomyces cerevisiae [2] (setting [8]) worked out at 0.66 ± 0.018; in the data set with Saccharomyces cerevisiae [2] (setting [9]) it was 0.75211 ± 0.00044.
For the sequence ACVRLVLCVCRV, the protein stability index with Saccharomyces cerevisiae [1] turned out to be 0.339 ± 0.0039; in the data set on Saccharomyces cerevisiae [2] (setting [3]), 0.281 ± 0.011; with Saccharomyces cerevisiae [2] (setting [4]) it was 0.341 ± 0.042; in the data set with Saccharomyces cerevisiae [2] (setting [5]), 0.237 ± 0.04; with Saccharomyces cerevisiae [2] (setting [6]), 0.4091 ± 0.0036; in the data set with Saccharomyces cerevisiae [2] (setting [7]), 0.211 ± 0.015. Also, the protein stability index in the data set on Saccharomyces cerevisiae [2] (setting [8]) was 0.225 ± 0.028; with Saccharomyces cerevisiae [2] (setting [9]), 0.375 ± 0.02.
ACVWVVALVWVF: the protein stability index in the data set on Saccharomyces cerevisiae [1] is 0.213 ± 0.016; in the data set with Saccharomyces cerevisiae [2] (setting [3]), 0.121 ± 0.005; in the data set with Saccharomyces cerevisiae [2] (setting [4]) it was 0.249 ± 0.041; in the data set on Saccharomyces cerevisiae [2] (setting [5]) it was 0.174 ± 0.035; with Saccharomyces cerevisiae [2] (setting [6]) it was 0.303 ± 0.015; in the data set with Saccharomyces cerevisiae [2] (setting [7]), 0.132 ± 0.0086. In addition, the protein stability index turned out to be 0.153 ± 0.01 in the data set on Saccharomyces cerevisiae [2] (setting [8]) and 0.243 ± 0.009 in the data set on Saccharomyces cerevisiae [2] (setting [9]).
Take AEVLCEIVIALR: the protein stability index was 0.523 ± 0.043 in the data set with Saccharomyces cerevisiae [1]; 0.582 ± 0.011 in the data set on Saccharomyces cerevisiae [2] (setting [3]); 0.675 ± 0.063 in the data set on Saccharomyces cerevisiae [2] (setting [4]); 0.485 ± 0.04 in the data set with Saccharomyces cerevisiae [2] (setting [5]); 0.583 ± 0.0085 in the data set with Saccharomyces cerevisiae [2] (setting [6]); 0.45 ± 0.019 with Saccharomyces cerevisiae [2] (setting [7]). The results for the protein stability index with Saccharomyces cerevisiae [2] (setting [8]) and in the data set with Saccharomyces cerevisiae [2] (setting [9]) were 0.48 ± 0.038 and 0.543 ± 0.018, respectively.
Regarding AFFFCVVVLFSF, the protein stability index was 0.182 ± 0.044 in the data set with Saccharomyces cerevisiae [1]; 0.194 ± 0.0078 in the data set with Saccharomyces cerevisiae [2] (setting [3]); 0.233 ± 0.013 in the data set on Saccharomyces cerevisiae [2] (setting [4]); 0.171 ± 0.027 with Saccharomyces cerevisiae [2] (setting [5]); 0.289 ± 0.015 with Saccharomyces cerevisiae [2] (setting [6]); 0.178 ± 0.018 with Saccharomyces cerevisiae [2] (setting [7]). In addition, the figures for the protein stability index in the data set on Saccharomyces cerevisiae [2] (setting [8]) and in the data set with Saccharomyces cerevisiae [2] (setting [9]) were 0.176 ± 0.041 and 0.256 ± 0.054, respectively.
For AFFRCKCYVGTP, the protein stability index in the data set on Saccharomyces cerevisiae [1] was 0.511 ± 0.057; with Saccharomyces cerevisiae [2] (setting [3]) it was 0.568 ± 0.011; with Saccharomyces cerevisiae [2] (setting [4]), 0.584 ± 0.046; in the data set on Saccharomyces cerevisiae [2] (setting [5]), 0.502 ± 0.017; in the data set on Saccharomyces cerevisiae [2] (setting [6]) it was 0.598 ± 0.013; with Saccharomyces cerevisiae [2] (setting [7]), 0.512 ± 0.013. In addition, the values for the protein stability index in the data set with Saccharomyces cerevisiae [2] (setting [8]) and in the data set with Saccharomyces cerevisiae [2] (setting [9]) were 0.495 ± 0.0099 and 0.561 ± 0.025, respectively.
On to AFTFLLCWLFGV, for which the protein stability index stood at 0.467 ± 0.054 in the data set on Saccharomyces cerevisiae [1]; 0.622 ± 0.024 with Saccharomyces cerevisiae [2] (setting [3]); 0.671 ± 0.01 with Saccharomyces cerevisiae [2] (setting [4]); 0.552 ± 0.018 in the data set on Saccharomyces cerevisiae [2] (setting [5]); 0.627 ± 0.0065 with Saccharomyces cerevisiae [2] (setting [6]); 0.453 ± 0.0068 with Saccharomyces cerevisiae [2] (setting [7]). Moreover, the protein stability index in the data set on Saccharomyces cerevisiae [2] (setting [8]) came out at 0.454 ± 0.016; with Saccharomyces cerevisiae [2] (setting [9]), 0.585 ± 0.041.
On to AFVALCACVIFV, for which the protein stability index amounted to 0.302 ± 0.025 in the data set with Saccharomyces cerevisiae [1]; 0.175 ± 0.015 in the data set with Saccharomyces cerevisiae [2] (setting [3]); 0.249 ± 0.026 in the data set on Saccharomyces cerevisiae [2] (setting [4]); 0.215 ± 0.039 in the data set on Saccharomyces cerevisiae [2] (setting [5]); 0.362 ± 0.005 with Saccharomyces cerevisiae [2] (setting [6]); 0.178 ± 0.016 in the data set on Saccharomyces cerevisiae [2] (setting [7]). Also, the values for the protein stability index with Saccharomyces cerevisiae [2] (setting [8]) and in the data set on Saccharomyces cerevisiae [2] (setting [9]) were 0.202 ± 0.026 and 0.302 ± 0.0078, respectively.
Regarding AGGVNWWSSWRV, the protein stability index in the data set with Saccharomyces cerevisiae [1] was found to be 0.7454 ± 0.006; with Saccharomyces cerevisiae [2] (setting [3]), 0.739 ± 0.049; in the data set with Saccharomyces cerevisiae [2] (setting [4]), 0.767 ± 0.0082; with Saccharomyces cerevisiae [2] (setting [5]) it was 0.648 ± 0.015; with Saccharomyces cerevisiae [2] (setting [6]) it was 0.775 ± 0.011; in the data set with Saccharomyces cerevisiae [2] (setting [7]) it was 0.6591 ± 0.0032. Also, the figures for the protein stability index in the data set with Saccharomyces cerevisiae [2] (setting [8]) and in the data set on Saccharomyces cerevisiae [2] (setting [9]) were 0.669 ± 0.014 and 0.78 ± 0.037, respectively.
As for AGMLMCLYLFFV, the protein stability index in the data set with Saccharomyces cerevisiae [1] was found to be 0.468 ± 0.027; with Saccharomyces cerevisiae [2] (setting [3]) it was 0.562 ± 0.05; in the data set on Saccharomyces cerevisiae [2] (setting [4]) it was 0.661 ± 0.047; with Saccharomyces cerevisiae [2] (setting [5]) it was 0.467 ± 0.032; with Saccharomyces cerevisiae [2] (setting [6]), 0.598 ± 0.022; in the data set on Saccharomyces cerevisiae [2] (setting [7]), 0.428 ± 0.0066. Also, the values for the protein stability index in the data set with Saccharomyces cerevisiae [2] (setting [8]) and in the data set with Saccharomyces cerevisiae [2] (setting [9]) were 0.449 ± 0.028 and 0.5673 ± 0.0029, respectively.
Take AIMFLVLGYVFF: the protein stability index with Saccharomyces cerevisiae [1] was determined as 0.378 ± 0.034; with Saccharomyces cerevisiae [2] (setting [3]) it was 0.262 ± 0.085; in the data set with Saccharomyces cerevisiae [2] (setting [4]), 0.395 ± 0.018; with Saccharomyces cerevisiae [2] (setting [5]), 0.269 ± 0.03; in the data set on Saccharomyces cerevisiae [2] (setting [6]), 0.462 ± 0.019; in the data set on Saccharomyces cerevisiae [2] (setting [7]), 0.255 ± 0.036. The protein stability index in the data set on Saccharomyces cerevisiae [2] (setting [8]) stood at 0.276 ± 0.027; with Saccharomyces cerevisiae [2] (setting [9]), 0.452 ± 0.019.
With ALCPPLPMLVVA, the protein stability index in the data set on Saccharomyces cerevisiae [1] is 0.2097 ± 0.00085; in the data set on Saccharomyces cerevisiae [2] (setting [3]), 0.02987 ± 0.00016; with Saccharomyces cerevisiae [2] (setting [4]), 0.03 ± 0.0043; with Saccharomyces cerevisiae [2] (setting [5]) it was 0.156 ± 0.019; in the data set with Saccharomyces cerevisiae [2] (setting [6]) it was 0.0912 ± 0.0067; in the data set with Saccharomyces cerevisiae [2] (setting [7]), 0.109 ± 0.01. Also, the protein stability index in the data set on Saccharomyces cerevisiae [2] (setting [8]) was found to be 0.137 ± 0.03; in the data set with Saccharomyces cerevisiae [2] (setting [9]), 0.0758 ± 0.0021.
ALLMVCFGFSLV: the protein stability index in the data set on Saccharomyces cerevisiae [1] worked out at 0.422 ± 0.01; in the data set on Saccharomyces cerevisiae [2] (setting [3]), 0.445 ± 0.022; in the data set on Saccharomyces cerevisiae [2] (setting [4]) it was 0.5162 ± 0.0013; in the data set on Saccharomyces cerevisiae [2] (setting [5]), 0.372 ± 0.032; in the data set on Saccharomyces cerevisiae [2] (setting [6]), 0.527 ± 0.0098; with Saccharomyces cerevisiae [2] (setting [7]), 0.335 ± 0.009. Further, the protein stability index amounted to 0.367 ± 0.02 with Saccharomyces cerevisiae [2] (setting [8]) and 0.508 ± 0.0078 in the data set on Saccharomyces cerevisiae [2] (setting [9]).
Consider ALNFFSLFMLFR, for which the protein stability index in the data set with Saccharomyces cerevisiae [1] was found to be 0.398 ± 0.048; in the data set with Saccharomyces cerevisiae [2] (setting [3]), 0.221 ± 0.058; in the data set on Saccharomyces cerevisiae [2] (setting [4]), 0.168 ± 0.07; in the data set with Saccharomyces cerevisiae [2] (setting [5]), 0.325 ± 0.041; in the data set on Saccharomyces cerevisiae [2] (setting [6]), 0.422 ± 0.022; in the data set with Saccharomyces cerevisiae [2] (setting [7]) it was 0.603 ± 0.0092. Besides, the protein stability index in the data set on Saccharomyces cerevisiae [2] (setting [8]) is 0.325 ± 0.034; in the data set on Saccharomyces cerevisiae [2] (setting [9]), 0.358 ± 0.022.
Regarding ALSRFFSVFLLV, the protein stability index in the data set on Saccharomyces cerevisiae [1] was 0.3814 ± 0.00064; in the data set with Saccharomyces cerevisiae [2] (setting [3]), 0.592 ± 0.013; with Saccharomyces cerevisiae [2] (setting [4]) it was 0.671 ± 0.009; with Saccharomyces cerevisiae [2] (setting [5]), 0.55 ± 0.019; with Saccharomyces cerevisiae [2] (setting [6]), 0.6766 ± 0.0044; with Saccharomyces cerevisiae [2] (setting [7]), 0.26 ± 0.012. Besides, the protein stability index with Saccharomyces cerevisiae [2] (setting [8]) is 0.266 ± 0.03; in the data set with Saccharomyces cerevisiae [2] (setting [9]) it was 0.454 ± 0.032.

The record behind these values is the supplement of paper PMC10724198.
